In publication PMC10397247:
One block for each binder: values may come before it.

Experiments:
Experiment in all cases: two-hybrid library CCNG1;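 also: natural log of median RNA to DNA barcode read ratio; higher means stronger binding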
P3SHb = target: T1, P3SHb
T1 chain: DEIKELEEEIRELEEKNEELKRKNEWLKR

P5SHb = target: T2, P5SHb
T2 chain: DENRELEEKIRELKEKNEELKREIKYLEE

P1SHb = target: T3, P1SHb
T3 chain: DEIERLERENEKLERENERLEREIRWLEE

P8SHb = target: T4, P8SHb
T4 chain: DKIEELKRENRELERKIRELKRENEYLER

P9SHb = target: T5, P9SHb
T5 chain: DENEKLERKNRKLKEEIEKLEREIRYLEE

P6SHb = target: T6, P6SHb
T6 chain: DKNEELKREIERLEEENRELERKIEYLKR

P2SHb = target: T7, P2SHb
T7 chain: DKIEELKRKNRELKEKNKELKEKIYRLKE

P7SHb = target: T8, P7SHb
T8 chain: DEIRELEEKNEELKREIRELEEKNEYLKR

P4SHb = target: T9, P4SHb
T9 chain: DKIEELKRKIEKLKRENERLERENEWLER

4H3632-bH = target: T10, 4H3632-bH
T10 chain: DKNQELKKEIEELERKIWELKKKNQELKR

4H470-bH = target: T11, 4H470-bH
T11 chain: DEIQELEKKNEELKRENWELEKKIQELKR

4H2745-bH = target: T12, 4H2745-bH
T12 chain: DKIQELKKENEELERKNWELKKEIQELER

4H363-bH = target: T13, 4H363-bH
T13 chain: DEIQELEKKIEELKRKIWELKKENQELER

4H344-bH = target: T14, 4H344-bH
T14 chain: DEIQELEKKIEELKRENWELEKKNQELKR

4H342-bH = target: T15, 4H342-bH
T15 chain: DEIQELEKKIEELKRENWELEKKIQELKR

4H3070-bH = target: T16, 4H3070-bH
T16 chain: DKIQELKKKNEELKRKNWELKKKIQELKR

4H3907-bH = target: T17, 4H3907-bH
T17 chain: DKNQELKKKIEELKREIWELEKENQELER

4H496-bH = target: T18, 4H496-bH
T18 chain: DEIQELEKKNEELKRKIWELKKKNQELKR

4H2691-bH = target: T19, 4H2691-bH
T19 chain: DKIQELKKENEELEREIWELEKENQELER

4H2717-bA = target: T20, 4H2717-bA
T20 chain: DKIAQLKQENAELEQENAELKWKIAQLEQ

4H3961-bH = target: T21, 4H3961-bH
T21 chain: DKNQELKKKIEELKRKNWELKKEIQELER

4H2619-bH = target: T22, 4H2619-bH
T22 chain: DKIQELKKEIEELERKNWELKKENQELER

interaction score (P3SHb): -1.76 | interaction score (P5SHb): -0.59 | interaction score (P1SHb): -1.02 | interaction score (P8SHb): -0.756 | interaction score (P9SHb): -0.505 | interaction score (P6SHb): -0.147 | interaction score (P2SHb): 1.75 | interaction score (P7SHb): -0.298 | interaction score (P4SHb): -0.498
Binder: DEIERLERENEKLERENERLEREIRWLEE [P1SHb]

interaction score (4H3632-bH): -0.755 | interaction score (4H470-bH): 0.724 | interaction score (4H2745-bH): 0.382 | interaction score (4H363-bH): 0.722 | interaction score (4H344-bH): 1.68 | interaction score (4H342-bH): 1.45 | interaction score (4H3070-bH): -0.416 | interaction score (4H3907-bH): 0.518 | interaction score (4H496-bH): -0.548 | interaction score (4H2691-bH): 0.304 | interaction score (4H2717-bA): -0.495 | interaction score (4H3961-bH): -0.9 | interaction score (4H2619-bH): 0.248
Binder: DKIQELKKEIEELERKNWELKKENQELER [4H2619-bH]
